Laboratory results published in patent US20170066831A1 (Janssen / Centocor, published 2017).

T1: human ST2L extracellular domain with C-terminal His6 tag (human, UniProt Q01638 19-328)
T1 construct: also called huST2L-ECD; ST2L-ECD
T1 sequence: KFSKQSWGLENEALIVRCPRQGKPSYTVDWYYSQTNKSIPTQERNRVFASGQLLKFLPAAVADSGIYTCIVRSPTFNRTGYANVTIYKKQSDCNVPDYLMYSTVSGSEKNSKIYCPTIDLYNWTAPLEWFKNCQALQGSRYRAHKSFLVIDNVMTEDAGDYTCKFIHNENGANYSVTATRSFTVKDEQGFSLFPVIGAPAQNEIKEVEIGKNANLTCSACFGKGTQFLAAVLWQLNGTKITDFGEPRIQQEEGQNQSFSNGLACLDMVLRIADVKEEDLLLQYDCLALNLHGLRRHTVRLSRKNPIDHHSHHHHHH

T2: cynomolgus (Macaca fascicularis) ST2L extracellular domain with C-terminal His6 tag (Macaca fascicularis (cynomolgus), UniProt Q01638 19-321 (human entry))
T2 construct: also called cyno ST2L-ECD; cynoST2L-ECD
T2 chain: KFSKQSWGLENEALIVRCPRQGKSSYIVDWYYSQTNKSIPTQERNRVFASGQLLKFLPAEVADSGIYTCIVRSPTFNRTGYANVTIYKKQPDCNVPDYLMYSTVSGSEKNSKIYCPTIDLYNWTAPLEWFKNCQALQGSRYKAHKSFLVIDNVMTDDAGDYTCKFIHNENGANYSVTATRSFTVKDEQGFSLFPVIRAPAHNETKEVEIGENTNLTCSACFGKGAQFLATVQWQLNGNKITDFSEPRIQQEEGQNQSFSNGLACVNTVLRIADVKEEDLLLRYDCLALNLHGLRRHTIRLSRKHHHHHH

T3: human ST2L, full length, on cells (human, UniProt Q01638 19-556)
T3 sequence: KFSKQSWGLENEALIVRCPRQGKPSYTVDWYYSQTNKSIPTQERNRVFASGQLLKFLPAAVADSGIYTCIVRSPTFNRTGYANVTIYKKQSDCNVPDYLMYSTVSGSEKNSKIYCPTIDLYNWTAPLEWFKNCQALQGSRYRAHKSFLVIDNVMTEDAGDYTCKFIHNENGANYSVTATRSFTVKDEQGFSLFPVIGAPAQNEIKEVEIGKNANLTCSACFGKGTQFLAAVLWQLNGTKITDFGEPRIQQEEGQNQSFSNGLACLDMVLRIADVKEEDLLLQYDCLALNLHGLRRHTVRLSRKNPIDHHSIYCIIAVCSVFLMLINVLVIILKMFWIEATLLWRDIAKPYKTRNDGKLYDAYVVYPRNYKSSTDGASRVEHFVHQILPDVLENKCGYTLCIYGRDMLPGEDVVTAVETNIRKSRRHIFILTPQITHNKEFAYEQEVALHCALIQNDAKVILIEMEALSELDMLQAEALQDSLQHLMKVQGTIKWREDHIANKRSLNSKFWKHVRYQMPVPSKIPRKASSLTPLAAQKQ


What was measured:
[1] = target: T1, human ST2L extracellular domain with …; experiment: SPR, mAb captured, ST2L-ECD in solution
[2] = target: T2, cynomolgus (Macaca fascicularis) ST2L …; experiment: SPR, mAb captured, ST2L-ECD in solution
[3] = target: T1, human ST2L extracellular domain with …; experiment: RLB ELISA: biotinylated IL-33 on coated huST2L-ECD, antibody titrated
Protocol: 96-well plate was coated with 50 μl of 4 μg/ml human ST2L-ECD (amino acids 19-328 of SEQ ID NO: 1) or 2 μg/ml cyno ST2L-ECD (amino acids 19-321 of SEQ ID NO: 2) having C-terminal His₆ tag in bicarbonate buffer at 4° C. for 16 hrs. All subsequent steps were performed at room temperature. Plate was blocked with 200 μl blocking buffer, and was washed 3 times with 300 μl of wash buffer containing PBS+0.05% Tween. 30 μl of various dilutions of anti-ST2L mAbs were added to the wells and incubated for 1 hour. For human receptor-ligand binding assay 20 μl of biotinylated human IL-33 (residues 112-270 of SEQ ID NO: 3) was added at 100 ng/ml final concentration and incubated for 30 minutes. For cyno receptor-ligand binding assay 20 μl of biotinylated cyno IL-33 (residues 112-269 of SEQ ID NO: 4) was added at 200 ng/ml final concentration and incubated for 30 minutes. The plate was washed 3 times with 300 μl of wash buffer. 50 μl of 0.2 μg/ml Streptavidin-HRP (Jackson Immunoresearch) was added and incubated for 30 min. The plate was washed 3 times with 300 μl of wash buffer containing PBS+0.05% Tween. 50 μl of TMB substrate (EMD Biosciences) was added to each well. Reaction was stopped by the addition of 100 μl of 0.2N Sulfuric Acid. OD450 were measured using Envision plate reader (Perkin Elmer).

[4] = target: T3, human ST2L, full length, on cells; experiment: cell-based or functional assay
[5] = target: T1, human ST2L extracellular domain with …; experiment: ProteOn SPR, mAb captured, ST2L-ECD in solution
Protocol: (§1) The affinities were analyzed by ProteOn. The experiments were performed at 25° C. using ProteOn's PBS-T-E buffer (PBS, 0.005% P20 and 3 mM EDTA) as running buffer. […] Mab capture was followed by injection of ST2L-ECD from 0.024-15 nM (5-fold dilutions) for 4 min (200 μL at 50 μL/min). The dissociation was monitored for 30 minutes for all reaction. Regeneration was performed using two 15 sec pulses of 10 mM glycine pH1.5. The data was fitted to a 1:1 with baseline drift model.
(§2) Association rates for the samples are fast, the langmuir with mass transfer model was used for curve fitting and estimation of Affinity. All of the samples had faster off rates than the parental clone and control Mab. The difference in off rate was the primary contributor to the lower affinity of the HFA variants when compared to the parent antibody.

[6] = target: T2, cynomolgus (Macaca fascicularis) ST2L …; experiment: ProteOn SPR, mAb captured, ST2L-ECD in solution
Protocol: as §1, §2

Binder | Kd [1] [nM] | koff [1] [s⁻¹] | kon [1] [M⁻¹ s⁻¹] | Kd [2] [nM] | koff [2] [s⁻¹] | kon [2] [M⁻¹ s⁻¹] | IC50 [3] [µg/mL] | RGA IC50 [4] [µg/mL] | Kd [5] [nM] | koff [5] [s⁻¹] | kon [5] [M⁻¹ s⁻¹] | Kd [6] [nM] | koff [6] [s⁻¹] | kon [6] [M⁻¹ s⁻¹]
STLM220 (antibody, V domains shown, frameworks VH3-23 / Vk-L6) VH: EVQLLESGGGLVQPGGSLRLSCAASGFTFSFYDMFWVRQAPGKGLEWVSDIRGEGGGTAYADSVKGRFTISRDNSKNTLYLQMNSLRAEDTAVYYCARDPWSTEGSFFVLDYWGQGTLVTVSS VL: EIVLTQSPATLSLSPGERATLSCRASQSVDDDLAWYQQKPGQAPRLLIYDASNRATGIPARFSGSGSGTDFTLTISSLEPEDFAVYYCQQYIGAPITFGQGTKVEIK | 0.016 | 9.53e-05 | 5.8e+06 | 0.009 | 0.00014 | 1.6e+07 | 0.39 | 0.6 |  |  |  |  |  | 
STLM207 (antibody, V domains shown, frameworks VH3-23 / Vk-L6) VH: EVQLLESGGGLVQPGGSLRLSCAASGFTFSSYDMIWVRQAPGKGLEWVSTIRGEGGTTAYADSVKGRFTISRDNSKNTLYLQMNSLRAEDTAVYYCARDPWSTEGSFFVLDYWGQGTLVTVSS VL: EIVLTQSPATLSLSPGERATLSCRASQSVDDDLAWYQQKPGQAPRLLIYDASNRATGIPARFSGSGSGTDFTLTISSLEPEDFAVYYCQQYITAPLTFGQGTKVEIK | 0.048 | 0.000395 | 8.33e+06 | 0.021 | 0.00207 | 1e+08 | 0.36 | 2.3 |  |  |  |  |  | 
STLM107 (antibody, V domains shown, frameworks VH3-23 / Vk-L6) VH: EVQLLESGGGLVQPGGSLRLSCAASGFTFSDYAMFWVRQAPGKGLEWVSAIEGEGGETNYADSVKGRFTISRDNSKNTLYLQMNSLRAEDTAVYYCARDPWSTEGSFFVLDYWGQGTLVTVSS VL: EIVLTQSPATLSLSPGERATLSCRASQSVDDDLAWYQQKPGQAPRLLIYDASNRATGIPARFSGSGSGTDFTLTISSLEPEDFAVYYCQQYIGAPITFGQGTKVEIK | 0.012 | 0.000341 | 2.9e+07 | 0.007 | 0.00065 | 1e+08 | 0.44 | 1.1 |  |  |  |  |  | 
STLM123 (antibody, V domains shown, frameworks VH3-23 / Vk-L6) VH: EVQLLESGGGLVQPGGSLRLSCAASGFTFSDYAMFWVRQAPGKGLEWVSAIEGEGGETNYADSVKGRFTISRDNSKNTLYLQMNSLRAEDTAVYYCARDPWSTEGSFFVLDYWGQGTLVTVSS VL: EIVLTQSPATLSLSPGERATLSCRASQSVDDDLAWYQQKPGQAPRLLIYDASNRATGIPARFSGSGSGTDFTLTISSLEPEDFAVYYCQQYITAPLTFGQGTKVEIK | 0.015 | 0.000208 | 1.37e+07 | 0.005 | 0.000519 | 1e+08 | 0.28 | 1.25 |  |  |  |  |  | 
STLM205 (antibody, V domains shown, C2494 HFA mAb: VH STLH194 + VL STLL272 (O18)) VH: EVQLVQSGAEVKKPGATVKISCKVSAFNIKDDYMHWVQQAPGKGLEWMGRIDPAIGNTEYAEKFQGRVTITADTSTDTAYMELSSLRSEDTAVYYCATGDFYAMDYWGQGTLVTVSS VL: DIQMTQSPSSLSASVGDRVTITCITNTDIDDVIHWYQQKPGKAPKLLIYEGNTLRPGVPSRFSGSGSGTDFTFTISSLQPEDIATYYCLQSDNMLTFGQGTKLEIK |  |  |  |  |  |  |  |  | 0.0401 | 0.000695 | 1.73e+07 | 0.1 | 0.00404 | 4.04e+07

Next, values leading:

Kd [1] [nM] | koff [1] [s⁻¹] | kon [1] [M⁻¹ s⁻¹] | Kd [2] [nM] | koff [2] [s⁻¹] | kon [2] [M⁻¹ s⁻¹] | IC50 [3] [µg/mL] | RGA IC50 [4] [µg/mL] | Kd [5] [nM] | koff [5] [s⁻¹] | kon [5] [M⁻¹ s⁻¹] | Kd [6] [nM] | koff [6] [s⁻¹] | kon [6] [M⁻¹ s⁻¹] | Binder
0.097 | 0.000222 | 2.29e+06 | 0.029 | 0.000598 | 2.05e+07 | 0.23 | 2.34 |  |  |  |  |  |  | STLM108 (antibody, V domains shown, frameworks VH3-23 / Vk-L6) VH: EVQLLESGGGLVQPGGSLRLSCAASGFTFSIYDMIWVRQAPGKGLEWVSTIKGEGGGTYYADSVKGRFTISRDNSKNTLYLQMNSLRAEDTAVYYCARDPWSTEGSFFVLDYWGQGTLVTVSS VL: EIVLTQSPATLSLSPGERATLSCRASQSVDDDLAWYQQKPGQAPRLLIYDASNRATGIPARFSGSGSGTDFTLTISSLEPEDFAVYYCQQYIGAPITFGQGTKVEIK
0.046 | 0.000756 | 1.65e+07 | 0.03 | 0.00257 | 8.71e+07 | 0.35 | 0.87 |  |  |  |  |  |  | STLM124 (antibody, V domains shown, frameworks VH3-23 / Vk-L6) VH: EVQLLESGGGLVQPGGSLRLSCAASGFTFSIYDMIWVRQAPGKGLEWVSTIKGEGGGTYYADSVKGRFTISRDNSKNTLYLQMNSLRAEDTAVYYCARDPWSTEGSFFVLDYWGQGTLVTVSS VL: EIVLTQSPATLSLSPGERATLSCRASQSVDDDLAWYQQKPGQAPRLLIYDASNRATGIPARFSGSGSGTDFTLTISSLEPEDFAVYYCQQYITAPLTFGQGTKVEIK
0.041 | 0.000163 | 3.97e+06 | 0.031 | 0.000202 | 6.42e+06 | 0.47 | 1.92 |  |  |  |  |  |  | STLM103 (antibody, V domains shown, frameworks VH3-23 / Vk-L6) VH: EVQLLESGGGLVQPGGSLRLSCAASGFTFSFYDMFWVRQAPGKGLEWVSSIRGEGGRTDYADSVKGRFTISRDNSKNTLYLQMNSLRAEDTAVYYCARDPWSTEGSFFVLDYWGQGTLVTVSS VL: EIVLTQSPATLSLSPGERATLSCRASQSVDDDLAWYQQKPGQAPRLLIYDASNRATGIPARFSGSGSGTDFTLTISSLEPEDFAVYYCQQYIGAPITFGQGTKVEIK
 |  |  |  |  |  |  |  | 0.0414 | 0.000897 | 2.17e+07 | 0.0845 | 0.00657 | 7.78e+07 | STLM199 (antibody, V domains shown, C2494 HFA mAb: VH STLH194 + VL STLL278 (L2)) VH: EVQLVQSGAEVKKPGATVKISCKVSAFNIKDDYMHWVQQAPGKGLEWMGRIDPAIGNTEYAEKFQGRVTITADTSTDTAYMELSSLRSEDTAVYYCATGDFYAMDYWGQGTLVTVSS VL: EIVMTQSPATLSVSPGERATLSCITNTDIDDVIHWYQQKPGQAPRLLIYEGNTLRPGIPARFSGSGSGTEFTLTISSLQSEDFAVYYCLQSDNMLTFGQGTKLEIK
